According to US12528864 (GlaxoSmithKline, dated 2026):
Where two headings read alike, the source gives them in different places.

Tests used:
[1] = target: T1, human CD96v2 expressed on cells (CHO cells; transiently transfected HEK cells) (human, UniProt P40200-2 22-569); test: flow cytometry on CHO cells expressing human CD96v2
T1 construct: whole, on cells; the cell is named under assay; also called CHO-huCD96; hCD96v2
T1 sequence (looked up): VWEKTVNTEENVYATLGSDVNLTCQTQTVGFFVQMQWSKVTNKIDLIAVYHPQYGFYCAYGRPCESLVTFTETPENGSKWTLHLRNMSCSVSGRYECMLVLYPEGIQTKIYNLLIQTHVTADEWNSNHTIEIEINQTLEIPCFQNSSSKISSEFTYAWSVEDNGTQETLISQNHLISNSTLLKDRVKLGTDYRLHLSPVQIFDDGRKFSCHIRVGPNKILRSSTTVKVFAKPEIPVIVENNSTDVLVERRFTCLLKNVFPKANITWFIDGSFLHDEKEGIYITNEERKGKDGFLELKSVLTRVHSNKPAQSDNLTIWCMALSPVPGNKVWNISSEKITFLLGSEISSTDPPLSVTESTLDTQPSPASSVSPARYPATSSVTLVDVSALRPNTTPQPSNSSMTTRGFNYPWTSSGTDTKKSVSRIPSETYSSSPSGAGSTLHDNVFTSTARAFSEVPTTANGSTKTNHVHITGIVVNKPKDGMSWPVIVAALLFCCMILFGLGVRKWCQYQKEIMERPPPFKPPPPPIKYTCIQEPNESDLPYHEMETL

recombinant human CD96v2 = target: T2, recombinant human CD96v2 (human, UniProt P40200-2 22-503, limits assumed, biotinylated (site not stated)); test: MSD-SET solution equilibrium titration, antibody titrated against constant biotinylated CD96, free antigen detected
T2 construct: Soluble recombinant protein used in MSD-SET; also called Biotinylated human CD96 protein
T2 sequence (looked up): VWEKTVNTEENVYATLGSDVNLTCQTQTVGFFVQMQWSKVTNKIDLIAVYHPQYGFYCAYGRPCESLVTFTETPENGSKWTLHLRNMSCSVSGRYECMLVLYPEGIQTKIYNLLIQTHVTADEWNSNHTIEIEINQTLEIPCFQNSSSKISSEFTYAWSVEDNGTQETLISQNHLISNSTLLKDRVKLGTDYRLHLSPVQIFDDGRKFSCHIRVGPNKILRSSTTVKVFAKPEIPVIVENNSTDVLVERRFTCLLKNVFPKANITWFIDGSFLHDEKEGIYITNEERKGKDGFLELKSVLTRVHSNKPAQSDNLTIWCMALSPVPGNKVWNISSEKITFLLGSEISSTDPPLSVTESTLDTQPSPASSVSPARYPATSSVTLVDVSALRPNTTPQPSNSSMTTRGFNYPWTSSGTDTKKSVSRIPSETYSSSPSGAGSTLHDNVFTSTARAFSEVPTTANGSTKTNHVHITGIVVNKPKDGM

[2] = target: T3, human CD96v1 on transiently transfected HEK cells (human, UniProt P40200 22-585); test: flow cytometry on transiently transfected HEK cells (Human CD96v1)
T3 construct: whole, on cells
T3 sequence (looked up): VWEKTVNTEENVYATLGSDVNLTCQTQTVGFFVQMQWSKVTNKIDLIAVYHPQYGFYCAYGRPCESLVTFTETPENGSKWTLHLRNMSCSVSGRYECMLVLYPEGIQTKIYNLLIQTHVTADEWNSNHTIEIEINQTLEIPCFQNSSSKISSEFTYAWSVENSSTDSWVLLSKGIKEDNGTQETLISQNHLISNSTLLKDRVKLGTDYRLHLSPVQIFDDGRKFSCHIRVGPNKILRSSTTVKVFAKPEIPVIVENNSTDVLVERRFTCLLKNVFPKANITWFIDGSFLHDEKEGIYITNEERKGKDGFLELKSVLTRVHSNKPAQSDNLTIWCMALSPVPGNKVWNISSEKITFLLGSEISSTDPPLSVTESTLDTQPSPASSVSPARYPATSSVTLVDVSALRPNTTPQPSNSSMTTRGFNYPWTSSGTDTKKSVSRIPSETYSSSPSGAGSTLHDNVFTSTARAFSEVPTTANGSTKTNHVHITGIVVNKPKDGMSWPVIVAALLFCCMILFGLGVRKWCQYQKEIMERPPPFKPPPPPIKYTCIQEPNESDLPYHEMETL

[3] = target: T4, cynomolgus monkey CD96v2 expressed on cells (CHO cells; transiently transfected HEK cells) (cynomolgus monkey, UniProt A0A2K5TWV6 22-569); test: flow cytometry on transiently transfected HEK cells (Cyno CD96v2)
T4 construct: the cell is named under assay; also called CHO-cyCD96; Cyno CD96v2
T4 sequence: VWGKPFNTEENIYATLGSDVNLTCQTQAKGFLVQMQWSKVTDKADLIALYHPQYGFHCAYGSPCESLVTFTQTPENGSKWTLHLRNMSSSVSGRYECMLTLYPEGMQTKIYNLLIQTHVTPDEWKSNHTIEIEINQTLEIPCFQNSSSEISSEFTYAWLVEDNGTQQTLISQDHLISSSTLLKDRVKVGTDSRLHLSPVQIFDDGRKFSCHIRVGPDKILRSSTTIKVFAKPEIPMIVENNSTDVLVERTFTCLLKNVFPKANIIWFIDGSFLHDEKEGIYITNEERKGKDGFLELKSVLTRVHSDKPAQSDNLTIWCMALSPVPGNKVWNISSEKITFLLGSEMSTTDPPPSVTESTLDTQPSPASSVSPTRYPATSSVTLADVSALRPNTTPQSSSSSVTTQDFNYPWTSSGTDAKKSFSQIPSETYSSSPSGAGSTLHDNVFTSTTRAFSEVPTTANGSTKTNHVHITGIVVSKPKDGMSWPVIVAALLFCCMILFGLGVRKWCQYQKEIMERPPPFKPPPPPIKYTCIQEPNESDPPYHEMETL

[4] = target: T5, blood derived cynomolgus monkey CD96v2 on transiently transfected HEK cells (cynomolgus monkey); test: flow cytometry on transiently transfected HEK cells (Cyno blood derived CD96v2)
T5 construct: also called Blood derived Cyno CD96v2

[5] = target: T3, human CD96v1 on transiently transfected …; test: flow cytometry on transiently transfected HEK cells (Human CD96v1); remark: listed apart in the source
[6] = target: T1, human CD96v2 expressed on cells (CHO …); test: flow cytometry on transiently transfected HEK cells (Human CD96v2)
[7] = target: T6, cynomolgus monkey CD96, native, on primary cynomolgus monkey T cells (cynomolgus monkey, UniProt A0A2K5TWV6 22-569); test: flow cytometry on activated cynomolgus monkey T cells, donor 2
T6 construct: whole, on cells
T6 sequence: T4 sequence

B1: 42Y073-86F08-66 (antibody)
heavy: not shown
light: DIQLTQSPSSLSASVGDRVTITCRASQSISSYLNWYQQKPGKAPKLLIYAASSLQSGVPSRFSGSGSGTDFTLTISSLQPEDFATYYCQQVLHTITFGGGTKVEIKRTVAAPSVFIFPPSDEQLKSGTASVVCLLNNFYPREAKVQWKVDNALQSGNSQESVTEQDSKDSTYSLSSTLTLSKADYEKHKVYACEVTHQGLSSPVTKSFNRGEC
notes: also called GSK 6097608; GSK6097608
**Q.** What does the source list for B1?
**A.** EC50 [1]: 0.05 nM; IC50 (read off the curve) (recombinant human CD96v2): ~0.06 nM; EC50 (read off the curve) [2]: ~7 nM; EC50 (read off the curve) [3]: ~6 nM; EC50 (read off the curve) [4]: ~7 nM; EC50 (read off the curve) [5]: ~3 nM; EC50 (read off the curve) [6]: ~6 nM; EC50 (read off the curve) [7]: ~0.1 nM
